The target in assay [1] is atypical protein kinase C ι (aPKCι) (Homo sapiens, UniProt P41743).
In assay [2] the target is T1, GST-PAR6 (Par6a, cds) (human, UniProt Q9NPB6 1-346).
T1 sequence (looked up): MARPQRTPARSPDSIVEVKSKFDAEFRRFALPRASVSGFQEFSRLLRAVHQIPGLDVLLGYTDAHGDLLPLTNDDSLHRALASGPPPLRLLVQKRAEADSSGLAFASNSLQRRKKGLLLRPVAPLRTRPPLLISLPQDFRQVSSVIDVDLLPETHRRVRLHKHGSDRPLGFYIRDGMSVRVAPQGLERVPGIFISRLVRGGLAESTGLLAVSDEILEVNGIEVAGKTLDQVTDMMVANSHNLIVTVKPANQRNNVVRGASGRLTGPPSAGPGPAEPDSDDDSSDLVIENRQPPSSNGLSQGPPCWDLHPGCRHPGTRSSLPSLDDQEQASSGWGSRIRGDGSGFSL
Put plainly: pull-down.

In general, IC50 refers to the midpoint of a concentration-inhibition curve. Read a low IC50 as higher potency. Molecule `O=C(O)CC([S][Au])C(=O)O` (stereo not drawn) [ATM, aurothiomalate] yielded an IC50 in assay [1] of 20.4 µM.

B1: HIS-aPKCι, PB1 domain of human atypical protein kinase C ι (amino acids 1–113) (domain or fragment, UniProt P41743 1-113, looked up)
chain: MPTQRDSSTMSHTVAGGGSGDHSHQVRVKAYYRGDIMITHFEPSISFEGLCNEVRDMCSFDNEQLFTMKWIDEEGDPCTVSSQLELEEAFRLYELNKDSELLIHVFPCVPERP
B1: in assay [2], the “mean binding ratio at 10 μM ATM (0 μM ATM = 100%)” value is 63.8% and the “mean binding ratio at 50 μM ATM (0 μM ATM = 100%)” value was 32.7%.
